Assay results published in the RNAGym collection of RNA variant scans (doi:10.1073/pnas.2313332121).

B1: TPR t1 (parent)
chain: GACCAAUCUGCCCUCAGAGCUCGAGAACAUCUUCGGAUGCAGAGGAGGCAGGCUUCGGUGGCGCGAUAGCGCCAACGUCCUCAACCUCCAAUGCAUCCCACCACAUGAUGAUGCCUGAAGAGCCUUGGUUUUUUG

Variants of: B1
Assay: polymerase ribozyme fitness, log enrichment relative to wild type (log ratio); higher = more active; in vitro selection for triplet polymerase activity
Summary of the method: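 Mutant libraries for each subunit of a heterodimeric triplet polymerase ribozyme were made by PCR and then transcribed. Each library underwent one round of in vitro selection in triplicate: annealing with a biotinylated primer, the partner subunit and triplets, frozen incubation at −7 °C, gel excision of extended constructs, streptavidin-bead capture and RT-PCR. Input and output libraries were Illumina-sequenced, and only genotypes with ≥10 input reads and ≥1 read per output were kept. Fitness is the logarithm, base 2, of genotype enrichment over wild-type enrichment, computed from inverse-variance-weighted replicate averages.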

In order of falling “polymerase ribozyme fitness (log ratio)” value:
1. U7G C79U C124G  2.41
2. U59C C124A  2.03
3. C73U C124U  1.94
4. C3U G71U A121G U125A  1.49
5. C72A C124A  1.27
6. C40G C53U A121C  1.26
7. G69U G120C  1.2
8. U9G G48U C49U G69U G120U  0.977
9. U9A A37U  0.568
10. A111C C123G  0.549
11. C8U  0.471
12. A111C U131C  0.44
13. G60U U87A  0.377
14. C3G C12G G120A G128U  0.37
15. U106A G120A  0.348
16. A37U U106C A119G  0.31
17. C3U G48U U54G G120C  0.141
18. U87A C115A  0.108
19. G60A C82A A95G  0.0608
20. U9C C28U G36U A121G  0.0298
21. G69U U78A A91U A111C  -0.0328
22. C8A G135A  -0.0375
23. A37G C56U  -0.0501
24. C11G C79U  -0.0995
25. C56U C72U  -0.11
26. G63C U112G  -0.181
27. A84U U106A  -0.185
28. C53A C88A  -0.22
29. C13U C40U  -0.246
30. G60A G77U  -0.312
31. U38A U132C  -0.329
32. G60C C86U U106A  -0.567
33. U96A U106A  -0.585
34. A91G  -0.586
35. C49G C53A U59G C72U C86U U132A  -0.782
36. U7A C72U U92C  -0.872
37. G60U U87G U129G  -0.951
38. C40G G122U  -0.991
39. G57U G58C  -1.12
40. C4U G69U G93U  -1.17
41. A5G C40U G69U A100G  -1.21
42. A41U G57U  -1.23
43. C8G G71A C89A C97U G120C  -1.24
44. G71A U131G  -1.27
45. C11G C15U G45C  -1.34
46. C11G G61C  -1.35
47. C20U G61U  -1.41
48. U7G G45A U59G U129A  -1.45
49. G61A G71U  -1.6
50. C13U C15G G57U G93A G117A  -1.62
51. C15U A41C G48A C53U C56U C124U  -1.63
52. G48C A83U A108G  -1.66
53. G48A C89A  -1.71
54. C4A A5C C13U G128C  -1.73
55. G61A C73A G127A  -1.74
56. C8A C70G  -1.76
57. C62A U96A  -1.77
58. C53A U116G  -1.78
59. C53G C72U C104A  -1.89
60. A2C C53A  -1.9
61. A37U G63C A95C  -1.93
62. C20A G77U G120C  -1.96
63. U7A C53U C86U A90G G122A  -1.97
64. C4U G36U C73U G127A  -2.05
65. C34U C124U  -2.06
66. C20A C73U  -2.08
67. G45U G61A  -2.11
68. C12G G48C C49A U55C G61A A95G G110A  -2.17
69. C28U G127U  -2.17
70. A6G A18C U54C  -2.19
71. G44A G69C  -2.21
72. C56A G93U  -2.21
73. A84C C85G G93A C101U  -2.22
74. G19U C64U C124U  -2.27
75. G36C C49G C70U  -2.37
76. C4A A46U C53G U130C  -2.39
77. C13U A18C A37C C49U A121C  -2.39
78. G51A C62U  -2.43
79. A5G A26U  -2.44
80. C4A G52C A74C  -2.47
81. C20A C56A  -2.5
82. A41U U96G  -2.51
83. G39A G48A C56G G69U A105C  -2.52
84. G71C G135U  -2.55
85. C3G U7G C88G C114U  -2.56
86. C72U C86U U126G  -2.65
87. U21A C34A C82A C123U U133G  -2.66
88. A5U A41U G61A C82G G120A U125G  -2.7
89. A18U C62G A121U  -2.71
90. U9C C13U G48A A74C U81G C101U U126C  -2.71
91. C99U U131C  -2.72
92. G47U G117U  -2.78
93. G19A C104U  -2.85
94. C11U G39U C86G  -2.92
95. G17U U78A  -2.93
96. A103G C114U  -3
97. C11A A18U  -3
98. U78A C115G U116G  -3.11
99. A37G C114U U129C  -3.17
100. C89A U116G C123G  -3.17
101. A41G C102U  -3.18
102. C89G A100C  -3.25
103. G48U U92A  -3.38
104. A50C G117C  -3.5
105. A46U G69A  -3.54
106. C34U U59G A121C C124G  -3.59
107. A18U A46U  -3.64
108. A29U G61A C82G U116C U125A  -3.67
109. C62U G65U  -3.73
110. C62U C70A C94G  -3.73
111. G61A C97A  -3.78
112. A24G A27G G120A  -3.91
113. A29U C89U A119U  -3.93
114. C56U U96G C101A G113C  -3.97
115. C64U U109A  -4.01
116. G48U G117C  -4.06
117. C20A A27G C40G U55C G71C  -4.12
118. G42U A74C G117U  -4.16
119. C3U G110C  -4.17
120. G60C C80A  -4.35
121. A16U G45C C56G A83C  -4.35
122. G25C G69U  -4.39
123. C8A G44A G57A G77A G110U C123U  -4.41
124. C40G A43C A111C A119G  -4.45
125. C4G C80U C89G  -4.61
126. C12U C56A G63U C89U C124A  -4.63
127. U109C C123U  -4.63
128. A2C C15A G25A G71U C80U G120C G135C  -4.64
129. A27G G69C C102U  -4.65
130. C102A G128A  -4.69
131. G17A A66G  -4.85
132. U7G A16U A43U C49U C70A C89A U116G  -4.88
133. C12A C15A C72A G110U  -4.88
134. G51U G52A  -4.95
135. A2U C13G G60U C85A  -4.99
136. C15G C34A  -5.11
137. U7A G44A A68G  -5.14
138. A50U C99U  -5.15
139. C34U G52U U87G U112A G135C  -5.16
140. C28A G61C  -5.18
141. C4A C80A  -5.24
142. C11G C20U C22A G39C  -5.35
143. G63A C64U  -5.38
144. G19C C62A U96A C124A G128C  -5.42
145. A2G A5U G71U A111U G120A  -5.48
146. C22A U59A  -5.52
147. C3U C79A G113U  -5.54
148. C64U U87A U109C  -5.61
149. A90C C104U A105C  -5.64
150. G36A C89U C94G C114U  -5.66
151. U14G G60A G117U  -5.67
152. A66U G69U C88G C99A A119G  -5.79
153. C73A C88G A111U U129G  -5.91
154. C72U C97U U106C A108G  -6.08
155. G69A G93A G113C  -6.22
156. U33G U96A G110C U116G  -6.31
157. A50U C62U C80U A84G A95U  -6.37
158. G39A C49G C62G A90C G113A  -6.39
159. G19A C20G U106C G117A  -6.46
160. C11G C34A G61U C62U C80G C86U G120A  -6.66
161. G17C C98U C102A A111G A121G G122A  -6.68
162. G45A C99A  -6.7
163. C40U U92G C98U G113U G117U  -6.95
164. C15U C99U C102A G113U A118G  -7.09
165. C56A C73U C97U A103U G120C  -7.26
166. A29G A37G U54G G69C  -7.29
167. A18G G57U G69A C85U G120U  -7.29
